Earlier results on one substance are cited in PMC5515885.

The target in the series is Nup153 (Homo sapiens) (UniProt P49790).
Sequence of UniProt P49790 (P49790 2-1475): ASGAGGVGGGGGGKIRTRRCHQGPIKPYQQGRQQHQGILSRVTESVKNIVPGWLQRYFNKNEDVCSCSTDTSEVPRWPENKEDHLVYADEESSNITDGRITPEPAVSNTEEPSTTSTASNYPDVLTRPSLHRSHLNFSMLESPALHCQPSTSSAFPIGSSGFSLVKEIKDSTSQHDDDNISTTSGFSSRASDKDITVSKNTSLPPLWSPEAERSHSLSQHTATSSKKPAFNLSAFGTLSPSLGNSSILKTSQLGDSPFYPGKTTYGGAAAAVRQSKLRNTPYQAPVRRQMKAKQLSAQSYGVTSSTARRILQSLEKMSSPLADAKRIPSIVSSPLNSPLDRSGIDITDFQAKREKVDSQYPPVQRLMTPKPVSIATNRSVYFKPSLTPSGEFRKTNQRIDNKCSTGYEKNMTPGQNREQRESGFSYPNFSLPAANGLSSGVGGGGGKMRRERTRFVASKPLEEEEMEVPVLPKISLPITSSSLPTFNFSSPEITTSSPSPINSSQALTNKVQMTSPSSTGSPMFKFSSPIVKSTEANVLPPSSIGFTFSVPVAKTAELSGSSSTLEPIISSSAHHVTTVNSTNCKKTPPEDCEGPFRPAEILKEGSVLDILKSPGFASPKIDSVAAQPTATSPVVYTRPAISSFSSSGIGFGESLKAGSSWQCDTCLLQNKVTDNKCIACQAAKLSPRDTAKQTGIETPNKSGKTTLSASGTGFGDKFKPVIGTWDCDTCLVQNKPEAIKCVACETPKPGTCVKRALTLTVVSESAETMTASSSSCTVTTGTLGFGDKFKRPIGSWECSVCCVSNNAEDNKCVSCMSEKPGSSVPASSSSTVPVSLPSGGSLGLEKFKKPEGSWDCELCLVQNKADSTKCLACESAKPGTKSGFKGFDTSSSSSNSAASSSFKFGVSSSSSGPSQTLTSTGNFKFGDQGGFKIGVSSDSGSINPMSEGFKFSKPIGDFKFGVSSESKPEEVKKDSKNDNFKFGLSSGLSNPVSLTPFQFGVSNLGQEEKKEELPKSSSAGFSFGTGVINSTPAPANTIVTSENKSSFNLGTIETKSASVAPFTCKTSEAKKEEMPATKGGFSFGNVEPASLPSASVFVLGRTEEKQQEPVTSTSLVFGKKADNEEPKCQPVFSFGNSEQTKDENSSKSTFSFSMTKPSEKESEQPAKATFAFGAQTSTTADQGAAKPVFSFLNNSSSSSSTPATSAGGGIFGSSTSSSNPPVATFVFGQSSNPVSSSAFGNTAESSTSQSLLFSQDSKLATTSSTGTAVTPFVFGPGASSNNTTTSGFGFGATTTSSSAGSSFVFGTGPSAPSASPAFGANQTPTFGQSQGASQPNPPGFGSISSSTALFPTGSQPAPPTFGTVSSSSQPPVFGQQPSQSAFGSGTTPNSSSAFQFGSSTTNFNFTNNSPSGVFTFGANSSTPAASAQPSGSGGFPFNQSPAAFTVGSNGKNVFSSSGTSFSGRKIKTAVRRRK

The term Kd denotes the free concentration of one partner at which half of the binding sites on the other are occupied at equilibrium, for simple one-to-one binding. Consider importin beta (from UniProt Q14974), for which the Kd is 9 nM.
